Test results as given in patent US20100048677A1 (NEW YORK BLOOD CENTER, published 2010).

These substances were tested against αIIb (INTEGRIN, ALPHA 2B; PLATELET GLYCOPROTEIN IIB OF IIB/IIIA COMPLEX, ANTIGEN CD41) (human) (UniProt P08514) (assay: αIIb complexes captured, mass spectrometry; No. Expts 1).

HOMER HOMOLOG 3 (DROSOPHILA), sequence (Q9NSC5 whole entry): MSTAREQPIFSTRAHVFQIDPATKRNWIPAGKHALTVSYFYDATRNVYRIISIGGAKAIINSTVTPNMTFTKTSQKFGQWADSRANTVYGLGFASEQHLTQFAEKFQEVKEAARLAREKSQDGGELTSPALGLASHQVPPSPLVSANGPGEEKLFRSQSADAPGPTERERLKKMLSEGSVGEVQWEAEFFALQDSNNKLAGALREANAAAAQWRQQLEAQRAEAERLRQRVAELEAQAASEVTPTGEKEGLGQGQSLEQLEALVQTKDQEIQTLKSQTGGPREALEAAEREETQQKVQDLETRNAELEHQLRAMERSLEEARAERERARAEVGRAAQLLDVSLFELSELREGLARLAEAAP
UniProt Q8IYS1, sequence (Q8IYS1 whole entry): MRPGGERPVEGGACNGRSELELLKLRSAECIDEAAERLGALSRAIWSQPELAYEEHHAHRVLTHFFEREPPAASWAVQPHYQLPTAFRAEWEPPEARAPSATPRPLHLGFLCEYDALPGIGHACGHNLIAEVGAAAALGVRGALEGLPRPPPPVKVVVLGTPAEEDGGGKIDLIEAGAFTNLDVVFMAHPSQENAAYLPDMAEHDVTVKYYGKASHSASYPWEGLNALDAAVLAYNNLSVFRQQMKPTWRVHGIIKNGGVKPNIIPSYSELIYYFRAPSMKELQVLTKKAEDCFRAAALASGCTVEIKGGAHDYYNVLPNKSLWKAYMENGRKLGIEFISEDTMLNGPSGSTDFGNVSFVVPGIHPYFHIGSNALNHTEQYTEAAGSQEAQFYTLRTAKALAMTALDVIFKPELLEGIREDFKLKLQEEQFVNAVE

| Substance | #Peptides [peptides] |
| --- | --- |
| …-3-PHOSPHATE DEHYDROGENASE (from UniProt P04406 2-335) | 3 |
| ISOCITRATE DEHYDROGENASE 3 (NAD+) ALPHA (from UniProt P50213 28-366) | 5 |
| REGULATION OF NUCLEAR pre-mRNA DOMAIN CONTAINING 1A (from UniProt Q96P16 2-312) | 7 |
| PYRUVATE KINASE, MUSCLE (from UniProt P14618 2-531) | 13 |
| HOMER HOMOLOG 3 (DROSOPHILA) (from UniProt Q9NSC5 1-361) | 1 |
| DEAH (ASP-GLU-ALA-HIS) BOX PO… 38 (from UniProt Q92620 2-1227) | 3 |
| SPLICING FACTOR 1 (from UniProt Q15637 2-639) | 4 |
| UDP-GLUCOSE PYROPHOSPHORYLASE 1 (from UniProt Q16851 1-508) | 13 |
| CASEIN KINASE 2, ALPHA PRIME PO… (from UniProt P19784 1-350) | 3 |
| KERATIN 19 (from UniProt P08727 1-400) | 3 |
| FOUR AND A HALF LIM DOMAINS 1 (from UniProt Q13642 2-323) | 5 |
| SIN3A-ASSOCIATED PROTEIN, 130 kDa (from UniProt Q9H0E3 1-1048) | 5 |
| CYCLIN G1 (from UniProt P51959 1-295) | 2 |
| U2(RNU2) SMALL NUCLEAR RNA AUXILIARY FACTOR 1 (from UniProt Q01081 2-240) | 1 |
| CHD9 (HYPOTHETICAL PROTEIN BC022889) (from UniProt Q3L8U1 1-2897) | 7 |
| AMINOACYLASE 1-LIKE 2 (from UniProt Q8IYS1 1-436) | 13 |
| ENGULFMENT AND CELL MOTILITY 1 (from UniProt Q92556 1-727) | 3 |
| CYCLIN B2 (from UniProt O95067 1-398) | 2 |
| PROTEIN KINASE, AMP-…, GAMMA 1 NON-… SUBUNIT (from UniProt P54619 1-331) | 12 |
| … CYCLASE 6 (from UniProt O43306 1-1168) | 4 |
| ADP-… GLUCOKINASE (from UniProt Q9BRR6 23-497) | 9 |
| GLUCO… AER61 (from UniProt Q5NDL2 18-527) | 3 |
| GEPHYRIN (from UniProt Q9NQX3 1-736) | 12 |
| CITRON (RHO-…, SERINE/THREONINE KINASE 21) (from UniProt O14578 1-2027) | 4 |
| MYELOPEROXIDASE (from UniProt P05164 165-745) | 3 |
| MITOGEN-… PROTEIN KINASE KINASE KINASE 7 … PROTEIN 2 (from UniProt Q9NYJ8 1-693) | 2 |

| Substance | #Peptides [peptides] |
| --- | --- |
| DEHYDROGENASE E1 AND TRANSKETOLASE DOMAIN CONTAINING 1 (from UniProt Q96HY7 1-919) | 25 |
| C5orf25 (FLJ44216 PROTEIN) (from UniProt Q8NDZ2 1-872) | 4 |
| ATAXIN 2-LIKE (from UniProt Q8WWM7 1-1075) | 8 |
| PROTEIN KINASE, AMP-…, BETA 1 NON-… SUBUNIT (from UniProt Q9Y478 2-270) | 9 |
| PROTEIN PHOSPHATASE 1, … SUBUNIT, ALPHA ISOFORM (from UniProt P62136 2-330) | 2 |
| TRYPTOPHANYL TRNA … 2 (from UniProt Q9UGM6 19-360) | 5 |
| CYCLIN K (from UniProt O75909 1-580) | 1 |
| …, DSH HOMOLOG 2 (DROSOPHILA) (from UniProt O14641 1-736) | 3 |
| PROTEIN PHOSPHATASE 1, REGULATORY (INHIBITOR) SUBUNIT 9A (from UniProt Q9ULJ8 1-1098) | 6 |
| RAVER1 (from UniProt Q8IY67 2-606) | 2 |
| HEAT SHOCK 70 kDa PROTEIN 9B (MORTALIN-2) (from UniProt P38646 47-679) | 11 |
| … EXPRESSED 10 (from UniProt Q86TG7 1-708) | 3 |
| KERATIN 16 (FOCAL NON-EPIDERMOLYTIC PALMOPLANTAR KERATODERMA) (from UniProt P08779 1-473) | 28 |
| RAN BINDING PROTEIN 10 (from UniProt Q6VN20 2-620) | 2 |
| SODIUM CHANNEL, VOLTAGE-GATED, TYPE X, ALPHA (from UniProt Q9Y5Y9 1-1956) | 11 |
| NON-POU DOMAIN CONTAINING, OCTAMER-BINDING (from UniProt Q15233 1-471) | 32 |
| TUBULIN, BETA 4 (from UniProt P04350 1-444) | 14 |
| GLUTAMATE RECEPTOR, IONOTROPIC, N-METHYL D-… 2D (from UniProt O15399 28-1336) | 2 |
| CORONIN, ACTIN BINDING PROTEIN, 1A (from UniProt P31146 2-461) | 2 |
| HTRA SERINE … 2 (from UniProt O43464 134-458) | 8 |
| CARS2 (HYPOTHETICAL PROTEIN FLJ12118) (from UniProt Q9HA77 1-564) | 9 |
| UBR4 (ZINC FINGER, UBR1 TYPE 1) (from UniProt Q5T4S7 1-5183) | 8 |
| HEAT SHOCK 70 kDa PROTEIN 1B (from UniProt P0DMV9 2-641) | 15 |
| ALDO-KETO REDUCTASE FAMILY 7, MEMBER A2 (AFLATOXIN ALDEHYDE REDUCTASE) (from UniProt O43488 39-359) | 19 |
| POLYMERASE (DNA-DIRECTED), DELTA … PROTEIN 2 (from UniProt Q9Y2S7 52-368) | 11 |
| PRE-B-CELL COLONY … FACTOR 1 (from UniProt P43490 1-491) | 6 |

The remaining lines, values ahead:

| #Peptides [peptides] | Substance |
| --- | --- |
| 20 | …-… 9 (from UniProt Q86TI2 2-863) |
| 3 | SEC13-LIKE 1 (S. …) (from UniProt P55735 2-322) |
| 2 | ZINC FINGER PROTEIN 703 (from UniProt Q9H7S9 2-590) |
| 3 | SEC23 HOMOLOG A (S. …) (from UniProt Q15436 2-765) |
| 8 | AMINOLEVULINATE, DELTA-, … (from UniProt P13716 1-330) |
| 6 | SERPINE1 MRNA BINDING PROTEIN 1 (from UniProt Q8NC51 2-408) |
| 2 | …-TRNA … 2 (from UniProt Q96I59 15-477) |
| 4 | HYPOTHETICAL PROTEIN FLJ22184 |
| 4 | TRANSLOCASE OF INNER MITOCHONDRIAL MEMBRANE 50 HOMOLOG (from UniProt Q3ZCQ8 45-353) |
| 6 | PRE-MRNA CLEAVAGE FACTOR I, 59 kDa SUBUNIT (from UniProt Q8N684 1-471) |
| 4 | PEROXIREDOXIN 3 (from UniProt P30048 62-256) |
| 3 | SEMENOGELIN I (from UniProt P04279 24-462) |
| 4 | 3-HYDROXY-3-METHYLGLUTARYL-COENZYME A SYNTHASE 1 (SOLUBLE) (from UniProt Q01581 1-520) |
| 9 | HETEROGENEOUS NUCLEAR RIBONUCLEOPROTEIN H1 (from UniProt P31943 1-449) |
| 6 | CNDP … 2 (METALLO… M20 FAMILY) (from UniProt Q96KP4 2-475) |
| 2 | STATHMIN-LIKE 3 (from UniProt Q9NZ72 1-180) |
| 10 | NUDIX (NUCLEOSIDE DIPHOSPHATE LINKED MOIETY X)-TYPE MOTIF 19 (from UniProt A8MXV4 1-375) |
| 2 | PATCHED DOMAIN CONTAINING 2 (from UniProt Q9P2K9 1-1392) |
| 8 | ACTININ, ALPHA 3 (from UniProt Q08043 1-901) |
| 15 | LOC731751 (UNKNOWN PROTEIN) |

| #Peptides [peptides] | Substance |
| --- | --- |
| 11 | CHAPERONIN CONTAINING TCP1, SUBUNIT 7 (ETA) (from UniProt Q99832 1-543) |
| 7 | … (from UniProt P02787 20-698) |
| 2 | SRY (SEX … REGION Y)-BOX 6 (from UniProt P35712 1-828) |
| 7 | RAB … LYSOSOMAL PROTEIN-LIKE 1 (from UniProt Q5EBL4 1-403) |
| 2 | ALPHA-2-MACROGLOBULIN (from UniProt P01023 24-1474) |
| 36 | TUBULIN, BETA 2C (from UniProt P68371 1-445) |
| 3 | LUC7L2 (CGI-59 PROTEIN) (from UniProt Q9Y383 1-392) |
| 9 | EXOSOME COMPONTENT 10 (from UniProt Q01780 1-885) |
| 13 | …-TRNA … 2 (from UniProt O95363 1-451) |
| 4 | N-ACETYLGLUCOSAMINE KINASE (from UniProt Q9UJ70 2-344) |
| 7 | KINESIN FAMILY MEMBER 14 (from UniProt Q15058 1-1648) |
| 20 | MALIC ENZYME 2, NAD(+)-…, MITOCHONDRIAL (from UniProt P23368 19-584) |
| 3 | ZINC FINGER PROTEIN 300 (from UniProt Q96RE9 1-604) |
| 7 | COILED-COIL DOMAIN CONTAINING 50 (from UniProt Q8IVM0 2-306) |
| 2 | PDZ AND LIM DOMAIN 7 (ENIGMA) (from UniProt Q9NR12 1-457) |
| 15 | HEAT SHOCK 70 kDa PROTEIN 1A (from UniProt P0DMV8 2-641) |
| 2 | ATP-BINDING CASSETTE, SUB-FAMILY A (ABC1), MEMBER 13 (from UniProt Q86UQ4 1-5058) |
| 16 | LECTIN, MANNOSE-BINDING, 1 (from UniProt P49257 31-510) |
| 5 | ATP CITRATE LYASE (from UniProt P53396 1-1101) |
